Assay results as given in article PMC8012516 (2021).

How the values were obtained:
[1] = biological target: S-receptor-binding domain (RBD)-Fc of SARS-CoV-2 (SARS-CoV-2, UniProt P0DTC2); experiment: SPR
[2] = biological target: angiotensin-converting enzyme 2 (UniProt Q9BYF1 18-805); experiment: SPR
Sequence of angiotensin-converting enzyme 2 (Q9BYF1 18-740): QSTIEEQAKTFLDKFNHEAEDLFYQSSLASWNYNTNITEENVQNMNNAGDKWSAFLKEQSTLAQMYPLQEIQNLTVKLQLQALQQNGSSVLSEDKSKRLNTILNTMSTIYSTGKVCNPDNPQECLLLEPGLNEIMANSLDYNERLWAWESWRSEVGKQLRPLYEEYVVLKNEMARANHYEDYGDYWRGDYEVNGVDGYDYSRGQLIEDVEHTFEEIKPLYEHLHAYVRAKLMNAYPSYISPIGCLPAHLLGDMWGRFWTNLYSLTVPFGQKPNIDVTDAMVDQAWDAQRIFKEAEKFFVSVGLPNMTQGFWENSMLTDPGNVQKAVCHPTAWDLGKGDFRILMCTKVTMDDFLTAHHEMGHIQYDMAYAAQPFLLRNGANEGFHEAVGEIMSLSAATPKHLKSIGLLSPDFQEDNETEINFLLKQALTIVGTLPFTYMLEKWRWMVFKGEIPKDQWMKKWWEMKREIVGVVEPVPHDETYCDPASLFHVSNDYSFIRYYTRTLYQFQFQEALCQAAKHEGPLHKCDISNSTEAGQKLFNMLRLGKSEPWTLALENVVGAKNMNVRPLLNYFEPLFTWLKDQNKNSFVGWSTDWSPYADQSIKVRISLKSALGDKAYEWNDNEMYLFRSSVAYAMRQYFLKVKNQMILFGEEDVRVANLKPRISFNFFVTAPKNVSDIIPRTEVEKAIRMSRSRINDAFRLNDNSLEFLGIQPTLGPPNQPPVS

With VQWRIRVAVIRK [antibacterial peptide DP7] the koff [1] was 0.00501 s⁻¹ and the koff [2] was 0.00918 s⁻¹.
